Experimental findings from patent US10494415B2, “Insulin-like growth factor 2 (IGF2) binding agents” (Cancer Research Technology Limited, priority 2015, dated 2019) are described below.

This test concerns the target IGF2 (Homo sapiens, UniProt P01344). Briefly: SPR (Biacore T200) of recombinant IGF2R domain 11 mutants on immobilised biotinylated IGF2. The class given is binding. Also noted: purchased GroPep. An excerpt:
Surface plasmon resonance (SPR) binding analysis of recombinant M6P/IGF2R domain 11 mutants interaction with IGF2. Kon indicates association (on) rate; koff, dissociation (off) rate; RU, response units. Binding to IGF2 assessed with BIAcore T200 using purified biotinylated IGF2 and IGF1 on a streptavidin biosensor chip. Recombinant proteins were expressed either in E. coli and/or P. pastoris. All the mutants in the FG and CD loops are on the domain 11^AB5 background for the AB loop unless otherwise stated. All experiments were carried out at 25° C. in HBS-EP buffer (pH 7.4), were repeated 2-5 times on two independent BIAcore chips. nd=not determined. Data for KD expressed as mean of each experiment, and means of kon and koff are shown.
Measurements were carried out at 25° C. in HBS-EP buffer (pH 7.4) (nd=not determined, np=no protein). Data for KD expressed as mean of each experiment, and means of kon and koff are shown.
Measurements were carried out at 25° C. in MES-EP buffer, 20 mM MES pH 6.5, 150 mM NaCl, 3 mM EDTA, and 0.005% (v/v) surfactant P20). Data for KD expressed as mean of each experiment, and means of kon and koff are shown.
Final kinetic analysis of mutants by SPR was conducted using a Biacore T200 biosensor at 25° C. in either HBS-EP (10 mM HEPES pH 7.4, 150 mM NaCl, 3 mM EDTA, and 0.005% (v/v) surfactant P20) or MES-EP (20 mM MES pH 6.5, 150 mM NaCl, 3 mM EDTA, and 0.005% (v/v) surfactant P20) at a flow-rate of 40 μL min^−1. […] For the analysis of the Fc-domain 11^AB5 interaction, approximately 50 RU of a biotinylated IGF2:biotinylated ubiquitin mixture (1:8 proportion) was immobilized on the CM5-streptavidin chip. This interaction was also analysed by immobilizing the Fc-domain 11^AB5 and Fc-domain 11^AB5-RHH (or Fc-domain 11^I1572A as control) by Human Antibody Capture (monoclonal mouse anti-human IgG antibody immobilised on a CM5 chip by amine coupling, GE Healthcare) with and without human IgG1 Fc fragment (Bethyl Laboratories, UK) in the control flow cell. Increasing concentrations of IGF2^1-67, proIGF2^1-104, proIGF2^1-156 and IGF1 ranging from 0.125 to 32 nM were injected. T200 BiaEvaluation software (GE Healthcare) was used to fit the resulting curves according to a 1:1 binding model. Steady state affinities were determined using the kinetic data, taking the response average at 5 seconds before injection end and for 5 seconds average. Thermodynamic data was performed across the temperature range of 10° C. to 30° C., van't Hoff and Erying plots generated and ΔH, −TΔS and ΔG values determined as previously described.
(In SPR one partner is held on a chip, and binding of the other changes the refractive index at the surface.)

Chain of IGF2 (P01344 25-91): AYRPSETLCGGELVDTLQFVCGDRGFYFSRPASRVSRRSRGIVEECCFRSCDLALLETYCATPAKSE

B1: AB5 P1597K: domain 11 AB5 + P1597K (protein)
chain: MKSNEHDDCQVTNPSTGHLFDLSSLSGRAGFTAAYAKGWGVYMSICGENENCPPGVGACFGQTRISVGKANKRLRYVDQVLQLVYKDGSKCPSKSGLSYKSVISFVCRPEAGPTNRPMLISLDKQTCTLFFSWHTPLACEQATECSV
On to B1, for which, under “Table 3, 25° C., HBS-EP pH 7.4”, the Kinetics koff was determined as 0.0120 s⁻¹ and the Kinetics kon turned out to be 9.54e+06 M⁻¹ s⁻¹.

B2: AB5 Q1569R P1597H S1602H G1603K: domain 11 AB5 + Q1569R, P1597H, S1602H, G1603K (protein)
chain: MKSNEHDDCQVTNPSTGHLFDLSSLSGRAGFTAAYAKGWGVYMSICGENENCPPGVGACFGRTRISVGKANKRLRYVDQVLQLVYKDGSHCPSKHKLSYKSVISFVCRPEAGPTNRPMLISLDKQTCTLFFSWHTPLACEQATECSV
For B2, the Kinetics koff (Table 3, 25° C., HBS-EP pH 7.4) came to 0.005 s⁻¹.

B3: AB5 Q1569R P1597K: domain 11 AB5 + Q1569R, P1597K (protein)
chain: MKSNEHDDCQVTNPSTGHLFDLSSLSGRAGFTAAYAKGWGVYMSICGENENCPPGVGACFGRTRISVGKANKRLRYVDQVLQLVYKDGSKCPSKSGLSYKSVISFVCRPEAGPTNRPMLISLDKQTCTLFFSWHTPLACEQATECSV
Regarding B3, under “Table 3, 25° C., HBS-EP pH 7.4”, the Kinetics koff was found to be 0.0091 s⁻¹ and the Kinetics kon came to 9.59e+06 M⁻¹ s⁻¹.

B4: AB5 Q1569R P1597H: domain 11 AB5 + Q1569R, P1597H (protein)
chain: MKSNEHDDCQVTNPSTGHLFDLSSLSGRAGFTAAYAKGWGVYMSICGENENCPPGVGACFGRTRISVGKANKRLRYVDQVLQLVYKDGSHCPSKSGLSYKSVISFVCRPEAGPTNRPMLISLDKQTCTLFFSWHTPLACEQATECSV
For B4, for the setting “Table 3, 25° C., HBS-EP pH 7.4”, the Kinetics koff worked out at 0.0058 s⁻¹ and the Kinetics kon was 3.2e+06 M⁻¹ s⁻¹. Under “Table 4, MES-EP pH 6.5”, the Kinetics koff was found to be 0.0034 s⁻¹ and the Kinetics kon was determined as 2.37e+06 M⁻¹ s⁻¹.

B5: AB5 P1597S: domain 11 AB5 + P1597S (protein)
chain: MKSNEHDDCQVTNPSTGHLFDLSSLSGRAGFTAAYAKGWGVYMSICGENENCPPGVGACFGQTRISVGKANKRLRYVDQVLQLVYKDGSSCPSKSGLSYKSVISFVCRPEAGPTNRPMLISLDKQTCTLFFSWHTPLACEQATECSV
In the case of B5, for the setting “Table 3, 25° C., HBS-EP pH 7.4”, the Kinetics koff came to 0.0193 s⁻¹ and the Kinetics kon is 5e+06 M⁻¹ s⁻¹.

B6: AB5 Q1569R P1597H K1631W: domain 11 AB5 + Q1569R, P1597H, K1631W (protein)
chain: MKSNEHDDCQVTNPSTGHLFDLSSLSGRAGFTAAYAKGWGVYMSICGENENCPPGVGACFGRTRISVGKANKRLRYVDQVLQLVYKDGSHCPSKSGLSYKSVISFVCRPEAGPTNRPMLISLDWQTCTLFFSWHTPLACEQATECSV
For the molecule B6, where the note is “Table 3, 25° C., HBS-EP pH 7.4”, the Kinetics koff is 0.0115 s⁻¹ and the Kinetics kon was 1.12e+07 M⁻¹ s⁻¹.

B7: AB5 Q1569R P1597K S1602H: domain 11 AB5 + Q1569R, P1597K, S1602H (protein)
chain: MKSNEHDDCQVTNPSTGHLFDLSSLSGRAGFTAAYAKGWGVYMSICGENENCPPGVGACFGRTRISVGKANKRLRYVDQVLQLVYKDGSKCPSKHGLSYKSVISFVCRPEAGPTNRPMLISLDKQTCTLFFSWHTPLACEQATECSV
Consider B7, for which, under “Table 3, 25° C., HBS-EP pH 7.4”, the Kinetics koff was determined as 0.0073 s⁻¹ and the Kinetics kon came to 7.87e+06 M⁻¹ s⁻¹.

B8: AB5 P1597L: domain 11 AB5 + P1597L (protein)
chain: MKSNEHDDCQVTNPSTGHLFDLSSLSGRAGFTAAYAKGWGVYMSICGENENCPPGVGACFGQTRISVGKANKRLRYVDQVLQLVYKDGSLCPSKSGLSYKSVISFVCRPEAGPTNRPMLISLDKQTCTLFFSWHTPLACEQATECSV
With B8, under “Table 3, 25° C., HBS-EP pH 7.4”, the Kinetics koff was 0.0150 s⁻¹ and the Kinetics kon was 4.18e+06 M⁻¹ s⁻¹.

B9: AB5 P1597N: domain 11 AB5 + P1597N (protein)
chain: MKSNEHDDCQVTNPSTGHLFDLSSLSGRAGFTAAYAKGWGVYMSICGENENCPPGVGACFGQTRISVGKANKRLRYVDQVLQLVYKDGSNCPSKSGLSYKSVISFVCRPEAGPTNRPMLISLDKQTCTLFFSWHTPLACEQATECSV
In the case of B9, for the setting “Table 3, 25° C., HBS-EP pH 7.4”, the Kinetics koff worked out at 0.0180 s⁻¹ and the Kinetics kon was 4.72e+06 M⁻¹ s⁻¹.

B10: AB5 P1597K S1602H: domain 11 AB5 + P1597K, S1602H (protein)
chain: MKSNEHDDCQVTNPSTGHLFDLSSLSGRAGFTAAYAKGWGVYMSICGENENCPPGVGACFGQTRISVGKANKRLRYVDQVLQLVYKDGSKCPSKHGLSYKSVISFVCRPEAGPTNRPMLISLDKQTCTLFFSWHTPLACEQATECSV
For the molecule B10, under “Table 3, 25° C., HBS-EP pH 7.4”, the Kinetics koff amounted to 0.0096 s⁻¹ and the Kinetics kon was determined as 2.09e+06 M⁻¹ s⁻¹.

B11: AB5 P1597H S1602H: domain 11 AB5 + P1597H, S1602H (protein)
chain: MKSNEHDDCQVTNPSTGHLFDLSSLSGRAGFTAAYAKGWGVYMSICGENENCPPGVGACFGQTRISVGKANKRLRYVDQVLQLVYKDGSHCPSKHGLSYKSVISFVCRPEAGPTNRPMLISLDKQTCTLFFSWHTPLACEQATECSV
As to B11, under “Table 3, 25° C., HBS-EP pH 7.4”, the Kinetics koff turned out to be 0.0046 s⁻¹ and the Kinetics kon turned out to be 3.5e+06 M⁻¹ s⁻¹. Besides, under “Table 4, MES-EP pH 6.5”, the Kinetics koff turned out to be 0.0029 s⁻¹ and the Kinetics kon worked out at 5.32e+06 M⁻¹ s⁻¹.

B12: AB5 Q1569R P1597H G1603K: domain 11 AB5 + Q1569R, P1597H, G1603K (protein)
chain: MKSNEHDDCQVTNPSTGHLFDLSSLSGRAGFTAAYAKGWGVYMSICGENENCPPGVGACFGRTRISVGKANKRLRYVDQVLQLVYKDGSHCPSKSKLSYKSVISFVCRPEAGPTNRPMLISLDKQTCTLFFSWHTPLACEQATECSV
Consider B12, for which, under “Table 3, 25° C., HBS-EP pH 7.4”, the Kinetics koff was found to be 0.0058 s⁻¹ and the Kinetics kon is 6.67e+06 M⁻¹ s⁻¹. Under “Table 4, MES-EP pH 6.5”, the Kinetics koff stood at 0.0051 s⁻¹ and the Kinetics kon came to 7.54e+06 M⁻¹ s⁻¹.

B13: AB5 HI^23D: domain 11 AB5 + HI loop of clone 23D (HFQS) (protein)
chain: MKSNEHDDCQVTNPSTGHLFDLSSLSGRAGFTAAYAKGWGVYMSICGENENCPPGVGACFGQTRISVGKANKRLRYVDQVLQLVYKDGSPCPSKSGLSYKSVISFVCRPEAGPTNRPMLISLHFQSCTLFFSWHTPLACEQATECSV
On to B13, for which, under “Table 3, 25° C., HBS-EP pH 7.4”, the Kinetics koff was 0.012 s⁻¹.

B14: AB5 P1597Q: domain 11 AB5 + P1597Q (protein)
chain: MKSNEHDDCQVTNPSTGHLFDLSSLSGRAGFTAAYAKGWGVYMSICGENENCPPGVGACFGQTRISVGKANKRLRYVDQVLQLVYKDGSQCPSKSGLSYKSVISFVCRPEAGPTNRPMLISLDKQTCTLFFSWHTPLACEQATECSV
On to B14, for which, where the note is “Table 3, 25° C., HBS-EP pH 7.4”, the Kinetics koff stood at 0.0203 s⁻¹ and the Kinetics kon worked out at 6.53e+06 M⁻¹ s⁻¹.

B15: AB5 Q1569R P1597K S1602H G1603K: domain 11 AB5 + Q1569R, P1597K, S1602H, G1603K (protein)
chain: MKSNEHDDCQVTNPSTGHLFDLSSLSGRAGFTAAYAKGWGVYMSICGENENCPPGVGACFGRTRISVGKANKRLRYVDQVLQLVYKDGSKCPSKHKLSYKSVISFVCRPEAGPTNRPMLISLDKQTCTLFFSWHTPLACEQATECSV
As for B15, for the setting “Table 3, 25° C., HBS-EP pH 7.4”, the Kinetics koff amounted to 0.008 s⁻¹.
